Laboratory results from paper PMC9907325.

Assays:
[1] = biological target: Fc-tagged human IL-2Rαβγ (Acro, ILG-H5257) (human) (UniProt P01589); test: SPR; Biacore 8K; Fc-tagged receptors captured by immobilised anti-human IgG (Fc) antibody on CM5 chips; 2-fold dilutions of HCW9302 or IL-2 injected 120 s, dissociation 300 s; regeneration 3 M magnesium chloride; 1:1 fitting model; KD apparent
[2] = biological target: Fc-tagged human IL-2Rα (Acro, ILA-H5251) (human) (UniProt P01589); test: as above
[3] = biological target: Fc-tagged human IL-2Rβγ (Acro, ILG-H5254) (human) (UniProt P14784); test: as above
[4] = biological target: HCW9302 (IL-2/TF/IL-2 fusion protein) (human) (UniProt P13726); test: SEC; HPLC-SEC profile of purified native HCW9302
[5] = biological target: Fc-tagged human IL-2Rαβγ (Acro, ILG-H5257) (human) (UniProt P01589)
[6] = biological target: His-tagged human IL-2Rα (Acro, ILA-H5251) (human) (UniProt P01589); test: SPR; His-tagged human, mouse or cynomolgus IL-2Rα chemically immobilised by amine coupling on CM5 chips; 2-fold dilutions of HCW9302 or IL-2 injected 90 s, dissociation 210 s; regeneration 3 M magnesium chloride; 1:1 fitting model; KD apparent
[7] = biological target: His-tagged cynomolgus IL-2Rα (Sino, 90265-C08H) (cynomolgus monkey); test: as above
[8] = biological target: His-tagged mouse IL-2Rα (Acro, ILG-M52H9) (mouse) (UniProt P01590); test: as above
Chain of UniProt P01590 (P01590 22-236): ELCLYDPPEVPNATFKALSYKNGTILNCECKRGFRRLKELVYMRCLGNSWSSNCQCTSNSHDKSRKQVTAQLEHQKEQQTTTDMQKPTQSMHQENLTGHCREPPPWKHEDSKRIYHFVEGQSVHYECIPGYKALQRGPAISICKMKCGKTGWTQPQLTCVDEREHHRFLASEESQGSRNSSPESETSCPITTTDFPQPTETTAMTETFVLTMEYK

Chain of UniProt P14784 (P14784 27-240, chain 1 of 2): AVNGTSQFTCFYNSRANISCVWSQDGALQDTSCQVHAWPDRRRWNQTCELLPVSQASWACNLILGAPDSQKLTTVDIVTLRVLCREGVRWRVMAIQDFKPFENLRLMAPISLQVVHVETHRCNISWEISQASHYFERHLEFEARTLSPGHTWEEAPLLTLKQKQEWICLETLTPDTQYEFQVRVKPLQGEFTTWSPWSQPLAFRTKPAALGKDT
Chain of UniProt P14784 (P31785 23-262, chain 2 of 2, further chain): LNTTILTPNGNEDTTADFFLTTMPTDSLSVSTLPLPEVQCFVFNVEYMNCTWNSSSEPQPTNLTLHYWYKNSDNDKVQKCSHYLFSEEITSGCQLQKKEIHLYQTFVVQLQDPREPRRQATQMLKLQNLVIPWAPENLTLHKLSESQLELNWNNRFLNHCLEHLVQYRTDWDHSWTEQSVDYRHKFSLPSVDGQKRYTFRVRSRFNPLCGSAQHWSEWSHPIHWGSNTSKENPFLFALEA

| Kd [1] | koff [1] | kon [1] | Kd [2] | koff [2] | Kd [3] | koff [3] | kon [3] | stoichiometry N [4] | phosphorylation of STAT5 in human Treg cells (PBMC, 30 min, 0.15-15000 pM), half-maximal stimulation (EC50) [5] | Kd [6] | koff [6] | kon [6] | Kd [7] | koff [7] | kon [7] | Kd [8] | koff [8] | kon [8] | Substance |
| --- | --- | --- | --- | --- | --- | --- | --- | --- | --- | --- | --- | --- | --- | --- | --- | --- | --- | --- | --- |
| 0.00201 nM | 0.000771 s⁻¹ | 3.83e+08 M⁻¹ s⁻¹ | 0.00199 nM | 0.107 s⁻¹ | 0.117 nM | 0.00017 s⁻¹ | 1.45e+06 M⁻¹ s⁻¹ | 2 | 6.12 pM | 0.0132 nM | 0.00289 s⁻¹ | 2.18e+08 M⁻¹ s⁻¹ | 0.00319 nM | 0.000457 s⁻¹ | 1.43e+08 M⁻¹ s⁻¹ | 0.296 nM | 0.000918 s⁻¹ | 3.1e+06 M⁻¹ s⁻¹ | HCW9302 (IL-2/TF/IL-2 fusion protein) (from UniProt P13726 33-251) (ligand) |
| – | – | – | – | – | – | – | – | – | 43.1 pM | – | – | – | – | – | – | – | – | – | aldesleukin (Proleukin), clinical grade rhIL-2 (from UniProt P60568 21-153) (ligand) |
| – | – | – | – | – | – | – | – | – | – | – | – | – | 16.3 nM | 0.212 s⁻¹ | 1.3e+08 M⁻¹ s⁻¹ | – | – | – | human IL-2 (Acro, S13-H5113) (from UniProt P60568 21-153) (ligand) |
